For one molecule, Kd, koff and kon results are on record in patent US20060240012A1.

Assay [1] concerns the target human interleukin-6 (human) (UniProt P05231). Briefly: SPR (BIAcore), purified scFv. Background: SPR reads the build-up and loss of mass on a sensor chip optically.
For assay [2] the target is unchanged. Nature of the assay: SPR (BIAcore), human IL-6 immobilised, IL6gk3-2 scFv injected at 10 to 80 nM.

The term Kd denotes the constant that tells how readily two partners part at equilibrium. A low value points to tighter binding. As usually defined, the koff is the rate constant with which the complex falls apart. Low values mean a long-lived complex, high ones a short-lived complex. The term kon denotes the second-order rate constant of association.

UniProt P05231, sequence (P05231 29-212 limits assumed): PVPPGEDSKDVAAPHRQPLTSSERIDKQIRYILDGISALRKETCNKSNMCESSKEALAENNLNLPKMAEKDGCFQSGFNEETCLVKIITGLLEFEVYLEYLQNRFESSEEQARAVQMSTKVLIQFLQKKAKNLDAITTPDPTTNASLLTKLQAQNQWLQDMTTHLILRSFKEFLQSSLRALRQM

B1: IL6gk3-2 scFv (purified soluble single chain Fv of the human anti-human IL-6 antibody clone IL6gk3-2) (scFv, part only; not given: linker and E-tag, V domains shown, not shown: another chain or arm of the molecule; small tags and cut ends)
VH: QVNLRESGGDLVKPGGSLRLSCAASGFTFRKYYMAWIRQAPGKGPEWLSTISNSGDIIDYADSVRGRFSISRDNAQKSLYLQMTSLRPDDSAIYYCAREYFFSFDVWGRGTMVTVSS
VL: DIVMTQSPSSVSASVGDRVTIFCRASQDIRNWVAWYQQKPGEAPKLLIYDGSSLQSGVPSRFSGSGSGTEFTLTISSLQPEDFATYYCQQSDSTPITFGQGTRLEIK
As to B1, in assay [1], the Kd was determined as 13 nM. In assay [2], this molecule showed an off-rate constant (koff) of 0.0008 s⁻¹ and an association rate constant (kon) of 60000 M⁻¹ s⁻¹.
